These results are taken from patent publication US20120021993A1 (AJOU UNIVERSITY INDUSTRY ACADEMIC COOPERATION FOUNDATION, published 2012).

As usually defined, the EC50 (read off the curve) is the concentration at which the effect is half-maximal.

For assay [1], the target named is T1, human-derived cell death receptor 4, extracellular domain (amino acid residues 1-216), 6xHis tag (human, UniProt O00220 24-239).
T1 construct: extracellular domain; Expressed in E. coli; biotinylated for sorting and flow cytometry; residues 1-216; also called DR4; TRAIL-receptor 1
Nature of the assay: ELISA, coated target, A405. As to the method:
(§1) In order to measure the affinity and cross reactivity of the anti-DR4, -DR5 and -TNFα protein scaffold variants based on the Kringle domain structure to the target molecules, an enzyme-linked immunosorbent assay (ELISA) was performed. The target molecules DR4, DR5, TNFα and DcR1, DcR2 were attached to a 96 well EIA/RIA plate (COSTARCorning In., USA) by its reaction at 37° C. for 1 hour, and washed three times with 0.1% PBST (0.1% Tween20, pH 7.4, 137 mM NaCl, 10 mM Phosphate, 2.7 mM KCl, SIGMA-ALDRICH Co., USA) for 10 minutes. The target molecules were attached for 1 hour to a 96 well EIA/RIA plate in 1% PBSB (1% BSA, pH 7.4, 137 mM NaCl, 10 mM Phosphate, 2.7 mM KCl, SIGMA-ALDRICH Co., USA), and then washed three times with 0.1% PBST (0.1% Tween 20, pH 7.4, 137 mM NaCl, 10 mM Phosphate, 2.7 mM KCl, SIGMA-ALDRICH Co., USA) for 10 minutes. Then, the anti-DR4, -DR5 and -TNFα Kringle domain variants were bound, and washed three times with 0.1% PBST for 10 minutes. The anti-DR4, -DR5 and -TNFα Kringle domain variants were primarily bound to mouse-derived anti-c-myc 9e10 mAb (Ig Therapy, Korea), and secondarily bound to alkaline phosphatase (AP)-conjugated anti-mouse mAb (Sigma). Each of the Kringle domain variants was reacted with […] (pNPP, Sigma-aldrich Co., USA) and quantified at an absorbance of 405 nm.

Assay [2] deals with T2, DcR2 (UniProt Q9UBN6 56-211, limits assumed).
T2 sequence (looked up): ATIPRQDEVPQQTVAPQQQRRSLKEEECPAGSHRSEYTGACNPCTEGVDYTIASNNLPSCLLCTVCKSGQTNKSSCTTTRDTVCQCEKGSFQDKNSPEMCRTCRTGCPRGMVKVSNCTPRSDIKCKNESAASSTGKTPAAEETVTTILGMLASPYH
Put plainly: ELISA, coated target, single binder concentration not given, A405. As to the method: as §1

The target of assay [3] is T3, human-derived cell death receptor 5, extracellular domain (amino acid residues 1-130), 6xHis tag (human, UniProt O14763 56-210).
T3 construct: extracellular domain; Expressed in E. coli; biotinylated for sorting and flow cytometry; also called DR5; TRAIL-receptor 2
Nature of the assay: ELISA, coated target, A405. The method, then: as §1

Assay [4] addresses T1, human-derived cell death receptor 4, …. Put plainly: ELISA, coated target, single binder concentration not given, A405. As to the method:
as §1
A general note: ELISA stands for enzyme-linked immunosorbent assay.

Assay [5] has as its target T4, DcR1 (UniProt O14798 26-221, limits assumed).
T4 sequence (looked up): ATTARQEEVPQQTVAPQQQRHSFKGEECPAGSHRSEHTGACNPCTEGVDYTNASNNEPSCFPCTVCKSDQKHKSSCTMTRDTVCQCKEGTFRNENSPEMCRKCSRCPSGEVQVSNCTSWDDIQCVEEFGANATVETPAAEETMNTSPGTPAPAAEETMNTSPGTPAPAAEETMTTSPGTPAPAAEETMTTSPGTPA
Described as above. As to the method:
as §1

In assay [6] the target is T4, DcR1. Put plainly: yeast display, flow cytometry MFI [panel KD415]. For orientation: In flow cytometry, cells or beads pass a laser one at a time.
Assay [7] has as its target T2, DcR2. Nature of the assay: yeast display, flow cytometry MFI [panel KD415].
Assay [8] has as its target T1, human-derived cell death receptor 4, …. Put plainly: yeast display, flow cytometry MFI [panel KD506].
The target in assay [9] is T4, DcR1. Put plainly: yeast display, flow cytometry MFI [panel KD506].
For assay [10], the target named is T2, DcR2. Put plainly: yeast display, flow cytometry MFI [panel KD506].

T3 sequence (O14763 other isoform, or with tags, fused parts or gaps limits assumed, form in doubt): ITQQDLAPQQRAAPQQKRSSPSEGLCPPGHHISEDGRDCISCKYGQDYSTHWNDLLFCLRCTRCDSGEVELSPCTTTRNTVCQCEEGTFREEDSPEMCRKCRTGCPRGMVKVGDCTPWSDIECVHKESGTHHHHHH
T1 sequence (O00220 other isoform, or with tags, fused parts or gaps): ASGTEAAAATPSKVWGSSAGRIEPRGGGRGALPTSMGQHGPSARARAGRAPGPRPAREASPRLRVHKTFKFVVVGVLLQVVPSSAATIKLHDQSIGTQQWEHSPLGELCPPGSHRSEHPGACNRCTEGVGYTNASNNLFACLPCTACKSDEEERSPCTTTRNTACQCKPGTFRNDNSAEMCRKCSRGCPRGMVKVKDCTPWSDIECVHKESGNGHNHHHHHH

B1: KD459 (designed binder)
chain: CSRYRGHKYDGYKHRTYKGYQCQSWTKDKPHHHGIRHRNKIRDRFGKNYCRNPDTQNQPWCFTYGDEYRYELCNKPRC
Take B1: in [1], the “EC50 (read off the curve)” value is around 2 µM.

B2: KD404 (designed binder)
chain: CSRDKGYRYDGDGNKTLKGHKCQHWTKSKPHDHGYRHKLGNEDKFKKNYCRNPDTRAGPWCFTDQYRDRDELCYQPRC
notes: Soluble monomer from Pichia pastoris; also called anti-DR4 Kringle domain variant KD404; not shown: C-terminal myc tag-6xHis tag of pPICZaA
For B2, the “EC50 (read off the curve)” value in [1] was around 0.6 µM. Besides, the binding result in [2] is “no binding”.

B3: KD542 (designed binder)
chain: CNRAGGHKYDGDRYRTHRGDGCQNWAKTKPHHHGIGHRDKIRDKYRKNYCRNPDAKNGPWCFTNRNGDKNELCIQPRC
notes: Soluble monomer from Pichia pastoris; not shown: C-terminal myc tag-6xHis tag of pPICZaA
As for B3, the “EC50 (read off the curve)” value in assay [3] was around 5 µM. In addition, the binding result in [4] was “binds”.

B4: KD537 (designed binder)
chain: CTRTKGAKYDGYKHRTHEGNKCQSWNKARPHLHGDRLGNKYEHKARKNYCRNPDNRAEPWCFTDKNQNQHELCYGPRC
In the case of B4, the binding result in [4], in [5] and in [2] was “no binding” throughout.

B5: KD408 (designed binder)
chain: CDRHKGPKYDGFRDRTHKGHKCQYWDKPRPHHHGHKHGDEFRNRLGKNYCRNPDSQAEPWCFTHKDKYKYELCYQPRC
As for B5, the binding result in assay [1] is recorded as “binds”; in [5], “no binding”; in assay [2], “no binding”.

B6: KD456 (designed binder)
chain: CDKNRGNGYDGNEIQTDGGVQCQHWTKTKPHHHGLKLQHEHRVKHEKNYCRNPDARTQPWCFTDKHQHKDELCIEPRC
On to B6, for which the “EC50 (read off the curve)” value in assay [1] was around 2 µM. In addition, the binding result in [5] and in assay [2] was “no binding” in each case.

B7: L1234 (KD415) (designed binder)
chain: CTRSKGDEYDGHKHKTNRGLRCQHWPGTKPHFHGDKIKDRHGFRLKKNYCRNPDRELRPWCFTTDPNKRWELCDIPRC
notes: also called KD415L1234
Regarding B7, the binding result in [6] and in assay [7] was “no binding” in each case.

B8: KD437 (designed binder)
chain: CAKSRGYKYDGNRYKTNKGDKCQAWTKTKPHDHGHRHGHGDRFRNRKNYCRNPDHESKPWCFTYRDRYRHELCNRPRC
On to B8, for which the binding result is reported as “binds” in [4], “no binding” in [5] and “no binding” in assay [2].

B9: KD421 (designed binder)
chain: CAGAEGNEYDGDKYKTHKGYRCQRWDKSRPHNHGNKDRHQHENKVGKNYCRNPDNEAEPWCFTDQHKHGNELCDRPRC
Consider B9, for which the binding result in [4] is “binds”; in [5], “no binding”; in assay [2] it was “no binding”.

B10: KDT08 (designed binder)
chain: CPKSGGNGYDGYKHGTNEGLQCQNWDRAKPHDHGIEVQNEYGDRHEKNNCRNPDDKTRPWCFTHKDRYRNELCYQPRC
notes: Soluble monomer from Pichia pastoris; also called KRT08; not shown: C-terminal myc tag-6xHis tag of pPICZaA
Regarding B10, in assay [4], the binding result is listed as “no binding”.

B11: KD505 (designed binder)
chain: CPEDQGDEYDGHEHKTHRGNRCQSWYRPKPHNHGHRIKDRYKYKVKKNYCRNPDTQARPWCFTNRHRDEHELCDQPRC
notes: also called KDS05
As to B11, the binding result in [4], in assay [5] and in assay [2] was “no binding” throughout.

B12: KD503 (designed binder)
chain: CTQTKGHRYDGYKYETNWGHQCQAWTKHKPHLHGNGHRNRHKVGHEKNYCRNPDHRDGPWCFTNQYENENELCHQPRC
With B12, in assay [3], the “EC50 (read off the curve)” value was around 0.4 µM. Besides, the binding result in [4], in assay [5] and in assay [2] was “no binding” in each case.

B13: L1234 (KD506) (designed binder)
chain: CPEDRGHEYDGDGDKTNRGHGCQYWDQNKPHHHGHRDKDKFKHRIKKNYCRNPDRELRPWCFTTDPNKRWELCDIPRC
notes: also called KD506L1234
Take B13: the binding result in assay [8], in [9] and in assay [10] was “no binding” throughout.

B14: KD509 (designed binder)
single chain: CAQSKGYRYDGDKDKTNKGHKCQDWAQNKPHVHGHRHEDRHQVKSRKNYCRNPDARARPWCFTNQVRYRNELCYKPRC
Take B14: the binding result in assay [2] is given as “no binding”.

B15: KD409 (designed binder)
chain: CAKDKGDKYDGHKHKTNRGDKCQTWAKNRPHFHGHRFEVGHEHKIRKNYCRNPDDQDKPWCFTHGYRNQDELCDGPRC
Consider B15, for which the binding result in [4] is “binds”; in assay [5], “no binding”; in assay [2] it was “no binding”.

B16: KD445 (designed binder)
chain: CHETKGHKYDGHRLRTNKGDRCQPWTKDKPHHHGFRDQYQVRYKLKKNYCRNPDDQNKPWCFTDGNQHEHELCNGPRC
With B16, the binding result in assay [4] was “binds”; in assay [5], “no binding”; in assay [2] it was “no binding”.

B17: KD555 (designed binder)
chain: CDGAQGNGYDGNKHKTHRGNKCQAWPKHGPHYHGNGDQDGHRNKHKKNYCRNPDTRSRPWCFTDQNGHKDELCHGPRC
notes: also called KDS55
On to B17, for which the binding result in assay [4], in assay [5] and in [2] was “no binding” in each case.

B18: KD506L567 (designed binder)
chain: CMHCSGENYDGKISKTMSGLECQAWDSQSPHAHGYIPSKFPNKNLKKNYCRNPDYETGPWCFTNRYRNKNELCHEPRC
In the case of B18, the binding result in assay [8], in [9] and in [10] was “no binding” each time.

B19: L56 (KD506) (designed binder)
chain: CMHCSGENYDGKISKTMSGLECQAWDSQSPHAHGYIPSKFPNKNLKKNYCRNPDYETGPWCFTNRYRNKNELCDIPRC
notes: also called KD506L56
B19: the binding result in assay [8], in assay [9] and in assay [10] was “no binding” throughout.

B20: L5 (KD506) (designed binder)
chain: CMHCSGENYDGKISKTMSGLECQAWDSQSPHAHGYIPSKFPNKNLKKNYCRNPDYETGPWCFTTDPNKRWELCDIPRC
notes: also called KD506L5
As for B20, the binding result in assay [8], in assay [9] and in assay [10] was “no binding” throughout.

B21: KD502 (designed binder)
chain: CAEDKGARYDGYQYRTHKGIKCQPWYQHEPHYHGHKDKIRHKNRNKKNYCRNPDAGDRPWCFTHRDKYEHELCNRPRC
Consider B21, for which the “EC50 (read off the curve)” value in assay [3] is around 2 µM. Further, the binding result in assay [4], in assay [5] and in assay [2] was “no binding” each time.
